In the Human Domainome abundance scans (Beltran et al. 2025):
± gives the uncertainty stated by the source.

B1: Far upstream element-binding protein 1, residues 98 to 169; numbered along this chain, Q96AE4 (parent)
chain: RSVMTEEYKVPDGMVGFIIGRGGEQISRIQQESGCKIQIAPDSGGLPERSCMLTGTPESVQSAKRLLDQIVE

Variants of: B1
Experiment: abundance fitness (aPCA) (normalised: wild type 0, dead -1); higher = more abundant; growth selection in yeast, the domain comes from the species named
Details: Homo sapiens

| Variant | abundance fitness |
| --- | --- |
| Q61R | -0.002 ± 0.023 |
| Q61W | -0.058 ± 0.03 |
| Q61H | -0.051 ± 0.041 |
| Q61M | -0.007 ± 0.034 |
| Q61A | -0.003 ± 0.028 |
| I29F | -0.144 ± 0.053 |
| I29T | -0.211 ± 0.034 |
| I29V | -0.031 ± 0.029 |
| I29N | -0.787 ± 0.09 |
| E7G | -0.116 ± 0.14 |
| E7F | -0.153 ± 0.23 |
| Q69K | -0.004 ± 0.033 |
| Q69N | -0.02 ± 0.038 |
| Q69E | 0.023 ± 0.03 |
| Q69L | -0.065 ± 0.024 |
| Q69W | -0.274 ± 0.029 |
| Q69Y | -0.162 ± 0.039 |
| I19F | -0.048 ± 0.054 |
| I19W | -0.042 ± 0.031 |
| I19N | -0.036 ± 0.045 |
| I19G | -0.072 ± 0.025 |
| I19P | -0.211 ± 0.029 |
| I19M | -0.071 ± 0.036 |
| T54Y | -0.046 ± 0.056 |

| Variant | abundance fitness |
| --- | --- |
| T54D | -0.191 ± 0.045 |
| T54M | 0 ± 0.038 |
| T54I | -0.054 ± 0.043 |
| T54A | -0.081 ± 0.03 |
| T54F | -0.105 ± 0.048 |
| T54W | -0.185 ± 0.031 |
| Q25L | -0.108 ± 0.027 |
| Q25A | -0.088 ± 0.027 |
| Q25N | -0.107 ± 0.048 |
| Q25E | 0.036 ± 0.03 |
| E6H | -0.081 ± 0.046 |
| E6A | -0.14 ± 0.027 |
| S2R | -0.004 ± 0.025 |
| S2H | -0.15 ± 0.048 |
| S2E | -0.007 ± 0.037 |
| S2F | -0.026 ± 0.039 |
| S2G | -0.003 ± 0.026 |
| K64H | -0.136 ± 0.041 |
| K64D | -0.634 ± 0.047 |
| K64A | -0.078 ± 0.027 |
| K64N | -0.274 ± 0.043 |
| K64S | -0.126 ± 0.026 |
| K64P | -0.781 ± 0.041 |
| K64E | -0.15 ± 0.03 |

| Variant | abundance fitness |
| --- | --- |
| I39L | -0.081 ± 0.029 |
| I39E | -0.36 ± 0.036 |
| I39F | 0.038 ± 0.05 |
| F17S | 0.063 ± 0.024 |
| F17C | -0.009 ± 0.032 |
| F17Y | -0.019 ± 0.038 |
| Q31C | 0.001 ± 0.048 |
| Q31S | -0.025 ± 0.029 |
| Q31F | -0.089 ± 0.047 |
| Q31Y | -0.09 ± 0.055 |
| Q31T | -0.024 ± 0.035 |
| Q31R | -0.014 ± 0.024 |
| Q31N | -0.013 ± 0.05 |
| I26L | 0.023 ± 0.029 |
| I26Q | -0.096 ± 0.035 |
| I26M | -0.084 ± 0.036 |
| I26A | -0.132 ± 0.032 |
| I26R | -0.17 ± 0.025 |
| R1V | -0.035 ± 0.036 |
| R1G | -0.102 ± 0.031 |
| R1I | 0.01 ± 0.034 |
| R1P | -0.286 ± 0.062 |
| P57S | -0.027 ± 0.03 |
| P57H | -0.12 ± 0.058 |

| Variant | abundance fitness |
| --- | --- |
| P57V | -0.086 ± 0.029 |
| P57F | 0.057 ± 0.051 |
| P57N | 0.001 ± 0.063 |
| P57D | -0.097 ± 0.044 |
| E24G | -0.057 ± 0.025 |
| E24F | -0.013 ± 0.061 |
| E24M | -0.093 ± 0.041 |
| E24A | -0.032 ± 0.03 |
| R65D | -0.043 ± 0.036 |
| R65W | -0.082 ± 0.028 |
| R65F | 0.017 ± 0.039 |
| R65P | -0.464 ± 0.034 |
| R65C | -0.029 ± 0.036 |
| G34Y | -0.269 ± 0.063 |
| G34H | -0.051 ± 0.052 |
| G34F | -0.222 ± 0.048 |
| G34W | -0.364 ± 0.037 |
| G34V | -0.256 ± 0.028 |
| G34Q | -0.086 ± 0.041 |
| Y8H | 0.024 ± 0.045 |
| Y8W | -0.059 ± 0.033 |
| Y8M | -0.104 ± 0.037 |
| L67V | -0.145 ± 0.026 |
| L67G | -0.583 ± 0.026 |

| Variant | abundance fitness |
| --- | --- |
| L67C | -0.161 ± 0.034 |
| L67K | -0.653 ± 0.042 |
| G44A | -0.013 ± 0.026 |
| G44N | -0.024 ± 0.033 |
| R49Q | -0.083 ± 0.038 |
| R49P | -0.144 ± 0.04 |
| R49H | -0.106 ± 0.054 |
| S43R | -0.086 ± 0.027 |
| S43W | -0.142 ± 0.037 |
| S43D | -0.042 ± 0.047 |
| S43G | -0.066 ± 0.026 |
| S43M | -0.087 ± 0.035 |
| R21Q | 0.046 ± 0.3 |
| R21V | -0.11 ± 0.21 |
| S62P | -0.727 ± 0.041 |
| S62K | 0.005 ± 0.033 |
| S62F | -0.071 ± 0.04 |
| S62E | -0.004 ± 0.029 |
| S62V | 0.012 ± 0.027 |
| S62I | -0.082 ± 0.053 |
| T56F | -0.087 ± 0.045 |
| T56K | -0.027 ± 0.036 |
| T56N | -0.03 ± 0.044 |
| T56D | -0.067 ± 0.037 |

| Variant | abundance fitness |
| --- | --- |
| A63C | 0.024 ± 0.036 |
| A63W | -1.31 ± 0.079 |
| A63N | -0.91 ± 0.078 |
| A63P | -0.805 ± 0.046 |
| V71C | -0.044 ± 0.037 |
| V71I | -0.077 ± 0.039 |
| V71E | -0.089 ± 0.031 |
| V71S | -0.074 ± 0.027 |
| V71R | -0.046 ± 0.024 |
| P41F | -0.198 ± 0.051 |
| P41I | -0.176 ± 0.048 |
| P41V | -0.111 ± 0.029 |
| P41D | 0.009 ± 0.041 |
| Q38E | 0.023 ± 0.034 |
| Q38K | -0.041 ± 0.039 |
| Q38S | -0.007 ± 0.03 |
| Q38D | -0.042 ± 0.043 |
| E32Q | -0.059 ± 0.035 |
| E32P | -0.796 ± 0.053 |
| E32C | -0.096 ± 0.046 |
| E32V | -0.05 ± 0.029 |
| A40P | -0.02 ± 0.036 |
| A40D | -0.039 ± 0.045 |
| A40Q | -0.045 ± 0.036 |

| Variant | abundance fitness |
| --- | --- |
| A40C | -0.023 ± 0.045 |
| T5I | -0.037 ± 0.038 |
| T5L | -0.11 ± 0.026 |
| T5E | 0.009 ± 0.03 |
| T5W | -0.138 ± 0.029 |
| T5Q | -0.016 ± 0.033 |
| T5R | -0.012 ± 0.023 |
| S50M | -0.018 ± 0.034 |
| S50N | 0.038 ± 0.046 |
| S50P | -0.043 ± 0.035 |
| S50L | -0.002 ± 0.028 |
| S50K | -0.019 ± 0.034 |
| S50A | -0.048 ± 0.029 |
| I70W | -0.02 ± 0.029 |
| G20I | -0.284 ± 0.051 |
| G20Q | -0.178 ± 0.034 |
| G20K | -0.14 ± 0.037 |
| G20Y | -0.279 ± 0.054 |
| V10P | -0.265 ± 0.032 |
| V10M | 0.008 ± 0.034 |
| V10L | -0.018 ± 0.025 |
| V10R | -0.491 ± 0.026 |
| V10E | -0.628 ± 0.04 |
